Results published in patent publication US20110076705A1.

Biological target: 2D9-binding PAGs (immuno-affinity purified PAGs used as ELISA standards)
Assay: sandwich ELISA on 2D9-coated plates with immuno-affinity purified PAG standards, log-logit transformation, SoftMax

Kd: 0.9 nM
B1: monoclonal antibody 2D9 (antibody, mouse IgG1, kappa, V domains shown)
VH: QVQLQQSGAELMKPGASVKISCKATGYIFSNYWMEWVKQRPGHGLEWIGEILPGSDITNYNEKFKDKATFTADSSSNTAYMQLSSLTSEDSAVYYCARAGSGYYGVYYYAMDYWGQGTSVTVSS
VL: DVLMTQTPLSLPVSLGDQASISCRSRQSIVHSNGNTYLEWFLQKPGQSPKLLIYKVSNRFSGVPDRFSGSGSGTDFTLKISRVEAEDLGVYYCFQGSHVPLTFGAGTKLELKR
